Experiment: soluble on expression in E. coli; label from the status in PepcDB or PDB records

| Sequence | soluble on expression in E. coli |
| --- | --- |
| MKITHCKLKKKVQKELLRFFVLEVTARSAADILGIHPNSAVLFYRKIRMVISHYLALAANEVFEGSVELDESYFGGRRKGKRGRGAAGKVVVFGILKRNGRVYTVVVDNAKSDTLMPVIKQKIMPDSIVYTDSLSSYDKLDVSGFIHYRINHSKEFADRQNHINGIENFWNQAKRVLRK | not soluble |
| EEIHLIAVNELLYVKAEDKYLSLYKVHGATTHEYLLRSSLKELLAQLDPNQFWQIHRSIVVNVGKIDKVTRDFGGKMWVHIDRLQLPVSRALQHLFKVS | not soluble |
| MQKKSIYVAYTGGTIGMQRSDNGYIPVSGHLQRQLALMPEFHRPEMPDFTIHEYAPLIDSSDMTPEDWQHIANDIQQNYDLYDGFVILHGTDTMAFTASALSFMLENLAKPVIITGSQIPLAELRSDGQTNLLNALYLAANHPVNEVSLFFNNQLFRGNRTTKAHADGFDAFASPNLSVLLEAGIHIRRQSSVVSPTSNGPLIVHRITPQPIGVVTIYPGISGAVVRNFLLQPVKALILRSYGVGNAPQKAELLDELKNASDRGIVVVNLTQCISGSVNMGGYATGNALAQAGVISGFDMTVEAALTKLHYLLSQSLSPNEIRQLMQQNLRGELTDTQ | soluble |
| MGSDKIHHHHHHVSVSDAGNFDANDVAVTFGIDKVREAFEQRRSTLPPFAPYDEEPESERPKLKATPFSWRDPATIPPRKWLYGRHLIRKFLSLDIAPGGLGKSSVKIVEALAMTTGRNLLGKDCHEGPLNVWLYNLEDPAEETERRIHAAAQWFEIGPDDVGERLFVDSGREQPICIAEETDGGARIVRPVVEAVIEQLKDRRIDVLSIDPFVSSHAISENDNRAIDMVAKEWSRIADICDCAINLVHHVRKTNGAEVTAESSRGAVSLIGAARSVVVYNRMTKEEGERAGIEPRQLGFYFRTQNDKANLAPPEAADWFRMNNVDLPNGDSVGVACPWQWPDPFDGVSTWHLKEVQKRVSQGRYRADVRSAQWVGHVIANVLDIDLEKKAGRVKDILKQWLKNDMLREVEGTDEKRNVRKFVEVGTWHTD | not soluble |
| MGSDKIHHHHHHMTERELEILALLKQDPLIPQQELADRLGISRSAVAGHIMNLTNKGVIRGKGYILAEAKYAMVIGGANMDILGRPASSLRVGDSNPGSVSCSPGGVGRNIAENLARLGSDTRLMTAVGKDAYGQQIVEHCQRAGIDMKPSLQLSDGVTSTYLSVLDGDSDMHVAINDMAILERLGVEQLKSQQEMLKRASLAIIDANLSEAALAYLLSNFADIPLFVDTVSCAKAEKIKPYLGAVHTLKPNLKEAEQLSGISIANYGELPVLANWFHEQGVKRVFLSLGIDGVFYSDGEEQAHIPAIPVEMVNANGAGDAFLAGLAHGFMQGWSTRQSTEFAMAAAVVALSDLATINPNMSEISVNRVIKESLC | not soluble |
| MGSDKIHHHHHHMGSLEQRRLEQDKRPDDVRDEYDRDEARLIHSAAFRRLQSKTQVLGLGESDFYRTRLTHSMEVAQIGRGIVQYLSKNKKFAEYHEHLPNTSLITAICLAHDIGHPPFGHGGEVALNYCMREHGGFEGNGQTLRILGKLDKYTGEHGLNPTRRMLLGILKYPVAYSELVNEKAYEQVPDKNAPYWLFEARMQKPPKCYHDCDQEIVDFIFDGFAREELAKFTQTEQPIDKDEPEKPLHKKSLYKSLDCTIMNLADNISYSLHDFEDALSLGMITQRHWREHFEGKEALFNDLAKQLVRNDLNFDLITVNLFHKESHCRKEAIGSLVNLMITNAIIEKNQSGCENPLLSLEVKLAPQIEKLRQHIFDLVCEQVIFDENVQQLEFKGQKLVIELFQTLAKDPNRFLPKPTRERLKKAGEGLEGEHKKSAQLRVICDFVSGMTDDYATKFYEKLFTPSKGSIFDRL | not soluble |
| MQIKAGLIWMNGAFVPQEEAKTSVLSHALHYGTSVFEGIRAYETAKGPAIFRLKEHVKRFYNSAKVLRMEIPFAPEELEEAIKEVVRRNGYRSCYIRPLAWMGAKALGVNPLPNNPAEVMVAAWEWGAYLGEEAVRKGARLITSSWARFPANVMPGKAKVGGNYVNSALAKMEAVAAGADEALLLDEEGYVAEGSGENLFFVRDGVIYALEHSVNLEGITRDSVIRIAKDLGYEVQVVRATRDQLYMADEVFMTGTAAEVTPVSMIDWRPIGKGTAGPVALRLREVYLEAVTGRRPEYEGWLTYVNGQ | soluble |
| MAYRDQPLGELALSIPRASALFRKYDMDYCCGGKQTLARAAARKELDVEVIEAELAKLAEQPIEKDWRSAPLAEIIDHIIVRYHDRHREQLPELILQATKVERVHADKPSVPKGLTKYLTMLHEELSSHMMKEEQILFPMIKQGMGSQAMGPISVMESEHDEAGELLEVIKHTTNNVTPPPEACTTWKAMYNGINELIDDLMDHISLENNVLFPRALAGE | not soluble |

— the DeepSol protein solubility set
